Source: the supplement of paper PMC10567573

B1: ANKRD40 (parent)
chain: YQELLRVCCCELGVNPDQVEKIRK
B2: SETD8 (parent)
chain: KKAQGKTQQNRKLTDFYPVRRSSR

Variants of: B1
Assay: protein stability index of a GFP-peptide fusion (GPS, HEK-293T) (PSI 1-6); higher = more stable
Conditions: c terminus: a fixed tail appended
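Also: lentivirally expressed fusions sorted by FACS into six bins by GFP to DsRed ratio, PSI derived from sequencing read proportions per bin multiplied by bin number.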

| Variant | protein stability index |
| --- | --- |
| YQELLRVHCCELGVNPDQVEKIRK [C8H] | 2.84 |
| YQELLRVNCCELGVNPDQVEKIRK [C8N] | 3.48 |
| YQELLRVPCCELGVNPDQVEKIRK [C8P] | 2.12 |
| YQELLRVICCELGVNPDQVEKIRK [C8I] | 2.38 |
| YQELLRVECCELGVNPDQVEKIRK [C8E] | 3.56 |
| YQELLRVMCCELGVNPDQVEKIRK [C8M] | 2.09 |
| YQELLRVLCCELGVNPDQVEKIRK [C8L] | 2.24 |
| YQELLRVDCCELGVNPDQVEKIRK [C8D] | 3.81 |
| YQELLRVGCCELGVNPDQVEKIRK [C8G] | 2.8 |
| YQELLRVFCCELGVNPDQVEKIRK [C8F] | 1.44 |
| YQELLRVKCCELGVNPDQVEKIRK [C8K] | 2.19 |
| YQELLRVACCELGVNPDQVEKIRK [C8A] | 3.16 |
| YQERLRVCCCELGVNPDQVEKIRK [L4R] | 1.79 |
| YQEQLRVCCCELGVNPDQVEKIRK [L4Q] | 2.42 |
| YQECLRVCCCELGVNPDQVEKIRK [L4C] | 2.15 |
| YQEMLRVCCCELGVNPDQVEKIRK [L4M] | 1.82 |
| YQEALRVCCCELGVNPDQVEKIRK [L4A] | 2.63 |
| YQENLRVCCCELGVNPDQVEKIRK [L4N] | 2.55 |
| YQEILRVCCCELGVNPDQVEKIRK [L4I] | 2.58 |
| YQETLRVCCCELGVNPDQVEKIRK [L4T] | 2.53 |
| YQEHLRVCCCELGVNPDQVEKIRK [L4H] | 3 |
| YQESLRVCCCELGVNPDQVEKIRK [L4S] | 2.27 |
| YQEELRVCCCELGVNPDQVEKIRK [L4E] | 3.05 |
| YQEDLRVCCCELGVNPDQVEKIRK [L4D] | 3.98 |
| YQEKLRVCCCELGVNPDQVEKIRK [L4K] | 2.94 |
| YQEYLRVCCCELGVNPDQVEKIRK [L4Y] | 2.38 |

Variants of: B2
Assay: as above
Conditions: c terminus: a fixed tail appended

| Variant | protein stability index |
| --- | --- |
| KKAQGKTQQNRKLTDFYPVRRSDR [S23D] | 3.09 |
| KKAQGKTQQNRKLTDFYPVRRSNR [S23N] | 2.66 |
| KKAQGKTQQNRKLTDFYPVRRSMR [S23M] | 3.18 |
| KKAQGKTQQNRKLTDFYPVRRSLR [S23L] | 4.44 |
| KKAQGKTQQNRKLTDFYPVRRSPR [S23P] | 2.65 |
| KKAQGKTQQNRKLTDFYPVRRSAR [S23A] | 3.62 |
| KKAQGKTQQNRKLTDFYPVRRSER [S23E] | 3.5 |
| KKAQGKTQQNRKLTDFYPVRRSYR [S23Y] | 3.04 |
| KKAQGKTQQNRKLTDFYPVRRSFR [S23F] | 3.54 |
| KKAQGKTQQNRKLTDFYPVRRSKR [S23K] | 4.11 |
| KKAQGKTQQNRKLTDFYPVRRSGR [S23G] | 1.83 |
| KKAQGKTQQNRKLTDFYPVRRSTR [S23T] | 2.23 |
| KKAQGKTQQNRKLTDFYPVRRSRR [S23R] | 2.16 |
| KKAQGKTQQNRKLTDFYPVRRSHR [S23H] | 2.7 |
| KKAQGKTQQNRKLTDFYPVRRSST [R24T] | 2.75 |
| KKAQGKTQQNRKLTDFYPVRRSSC [R24C] | 3.61 |
| KKAQGKTQQNRKLTDFYPVRRSSQ [R24Q] | 1.06 |
| KKAQGKTQQNRKLTDFYPVRRSSA [R24A] | 2.12 |
| KKAQGKTQQNRKLTDFYPVRRSSL [R24L] | 2.08 |
| KKAQGKTQQNRKLTDFYPVRRSSP [R24P] | 3.87 |
| KKAQGKTQQNRKLTDFYPVRRSSM [R24M] | 3.16 |
| KKAQGKTQQNRKLTDFYPVRRSSH [R24H] | 2.54 |
| KKAQGKTQQNRKLTDFYPVRRSSS [R24S] | 3.83 |

| Variant | protein stability index |
| --- | --- |
| KKAQGKTQQNRKLTDFYPVRRSSN [R24N] | 2.76 |
| KKAQGKTQQNRKLTDFYPVRRSSF [R24F] | 2.57 |
| KKAQGKTQQNRKLTDFYPYRRSSR [V19Y] | 3.35 |
| KKAQGKTQQNRKLTDFYPWRRSSR [V19W] | 2.09 |
| KKAQGKTQQNRKLTDFYPRRRSSR [V19R] | 4.2 |
| KKAQGKTQQNRKLTDFYPQRRSSR [V19Q] | 3.49 |
| KKAQGKTQQNRKLTDFYPTRRSSR [V19T] | 2.72 |
| KKAQGKTQQNRKLTDFYPVKRSSR [R20K] | 1.93 |
| KKAQGKTQQNRKLTDFYPVWRSSR [R20W] | 3.22 |
| KKAQGKTQQNRKLTDFYPVMRSSR [R20M] | 2.94 |
| KKAQGKTQQNRKLTDFYPVTRSSR [R20T] | 1.92 |
| KKAQGKTQQNRKLTDFYPVSRSSR [R20S] | 2 |
| KKAQGKTQQNRKLTDFYPVCRSSR [R20C] | 2.78 |
| KKAQGKTQQNRKLTDFYPVPRSSR [R20P] | 4.13 |
| KKAQGKTQQNRKLTDFYPVNRSSR [R20N] | 2.83 |
| KKAQGKTQQNRKLTDFYPVFRSSR [R20F] | 2.63 |
| KKAQGKTQQNRKLTDFYPVGRSSR [R20G] | 3.43 |
| KKAQGKTQQNRKLTDFYPVLRSSR [R20L] | 2.32 |
| KKAQGKTQQNRKLTDFYPVQRSSR [R20Q] | 3.48 |
| KKAQGKTQQNRKLTDFYPVYRSSR [R20Y] | 2.25 |
| KKAQGKTQQNRKLTDFYPVDRSSR [R20D] | 3.66 |
| KKAQGKTQQNRKLTDFYPVVRSSR [R20V] | 3.67 |
| KKAQGKTQQNRKLTDFYPVRRQSR [S22Q] | 2.37 |

| Variant | protein stability index |
| --- | --- |
| KKAQGKTQQNRKLTDFYPVRRGSR [S22G] | 2.42 |
| KKAQGKTQQNRKLTDFYPVRRASR [S22A] | 2.92 |
| KKAQGKTQQNRKLTDFYPVRRHSR [S22H] | 1.38 |
| KKAQGKTQQNRKLTDFYPVRRTSR [S22T] | 2.63 |
| KKAQGKTQQNRKLTDFYPVRRLSR [S22L] | 2.02 |
| KKAQGKTQQNRKLTDFYPVRRYSR [S22Y] | 3.06 |
| KKAQGKTQQNRKLTDFYPVRRMSR [S22M] | 3.38 |
| KKAQGKTQQNRKLTDFYPVRRPSR [S22P] | 2.89 |
| KKAQGKTQQNRKLTDFYPVRTSSR [R21T] | 2.23 |
| KKAQGKTQQNRKLTDFYPVRASSR [R21A] | 2.52 |
| KKAQGKTQQNRKLTDFYPVRWSSR [R21W] | 2.57 |
| KKAQGKTQQNRKLTDFYPVRNSSR [R21N] | 3.2 |
| KKAQGKTQQNRKLTDFYPVRMSSR [R21M] | 3.63 |
| KKAQGKTQQNRKLTDFYPVRPSSR [R21P] | 2.7 |
| KKAQGKTQQNRKLTDFYPVRKSSR [R21K] | 2.66 |
| KKAQGKTQQNRKLTDFYPVRCSSR [R21C] | 2.23 |
| KKAQGKTQQNRKLTDFYPVRSSSR [R21S] | 3.25 |
| KKAQGKTQQNRKLTDFYPVRISSR [R21I] | 3.33 |
| KKAQGKTQQNRKLTDFYPVRDSSR [R21D] | 3.23 |
| KKAQGKTQQNRKLTDFYPVRGSSR [R21G] | 2.9 |
| KKAQGKTQQNRKLTDFYPVRESSR [R21E] | 3.17 |
| KKAQGKTQQNRKLTDFYPVRVSSR [R21V] | 3 |
